Two molecules from article PMC7851689, “Expanding the Enzyme Repertoire for Sugar Nucleotide Epimerization: the CDP-Tyvelose 2-Epimerase from Thermodesulfatator atlanticus for Glucose/Mannose Interconversion” (Applied and Environmental Microbiology, 2021) can be followed below.

The target in series [1] is CDP-tyvelose 2-epimerase-like enzyme from Thermodesulfatator atlanticus (TaCPa2E) (Thermodesulfatator atlanticus). Put plainly: SEC; gel filtration of the purified C-terminally His-tagged protein; conditions not shown (Fig. S3 and S4, supplemental material).
Substrate in series [2]: Nc1ccn([C@@H]2O[C@H](COP(=O)(O)OP(=O)(O)O[C@H]3O[C@H](CO)[C@@H](O)[C@H](O)[C@H]3O)[C@@H](O)[C@H]2O)c(=O)n1
Put plainly: purified protein. The settings on record: pH 7.5; 60.0 °C.

Substrate in series [3]: Nc1ccn([C@@H]2O[C@H](COP(=O)(O)OP(=O)(O)O[C@H]3O[C@H](CO)[C@@H](O)[C@H](O)[C@@H]3O)[C@@H](O)[C@H]2O)c(=O)n1
Put plainly: purified protein. Particulars: pH 7.5; 60.0 °C.

On to “CDP-tyvelose 2-epimerase-like enzyme from Thermodesulfatator atlanticus (TaCPa2E)”, for which, in series [1], the stoichiometry N (usually a count of units in the complex or per binding partner) is 2.

B1: TaCPa2E (Thermodesulfatator atlanticus) (protein)
chain: MKYLITGGCGFLGSNLASEVLRKREELIIFDNLYRIGSYENLEWLKQQGDFRFVHGDIRNREDIEKVIKEEKPDVIFHLAGQVAMTTSIENPRLDFEVNALGTFNLLDAVRKYSPESIIIYSSTNKVYGDLGWVRYEETETRYIAPDFPNGFPESIPLDFHSPYGCSKGAADQYMLDFCRIYGIKTVVFRHSSMYGGRQFATYDQGWIGWFCLKAIEIKKGLLKEPFTIHGNGKQVRDVLYADDMIELYFKTIENIEKAKGEAFNIGGGMENSLSLLELFSLLEKELDIKMRYKKLPWRESDQKIFVADIRKAQKLIGWQPKVSKYNGIQKMLEWIKKLV
Regarding B1, the Km (usually the substrate concentration at which the rate is half of its maximum) in “purified protein [2]” was 320 ± 20 µM; in “purified protein [3]” it was 310 ± 10 µM.
